Test results reported in US20090105116A1.

B1: SH2 domain from the SAP protein (protein)
chain: GSSHHHHHHSSFNPRGSDAVAVYHGKISRETGEKLLLATGLDGSYLLRDSESVPGVYCLCVLYHGYIYTYRVSQTETGSWSAETAPGVHKRYFRKIKNLISAFQKPDQGIVIPLQYPVEK
B2: eCla4-SLAM (peptide)
peptide: GGNSGFPGPINFTHKVHVGFDRKSLTIYAQVQKNFTGLPDTWKSLLQHSKIT
modifications: not checked

How the values were obtained:
[1] = molecular target: T1, CaCdc42 (R150K), sNBD-labeled and GMPPCP-loaded (Candida albicans); assay: fluorescence titration of 1 µM sNBD-labeled, GMPPCP-loaded CaCdc42 (R150K)
[2] = molecular target: eCla4-SLAM; assay: fluorescence titration of sNBD-CaCdc42 (R150K) with eCla4-SLAM in the presence of SAP-SH2 (competition; fit of the apparent Kd against SAP-SH2 concentration)
[3] = molecular target: T1, CaCdc42 (R150K), sNBD-labeled and …; assay: fluorescence cross-titration; mCst20 with cCst20 added, against mCst20 alone
[4] = molecular target: T1, CaCdc42 (R150K), sNBD-labeled and …; assay: fluorescence titration of 1 µM sNBD-labeled, GMPPCP-loaded CaCdc42 (R150K) with the peptide [panel B]
[5] = molecular target: T1, CaCdc42 (R150K), sNBD-labeled and …; assay: fluorescence cross-titration of sNBD-labeled CaCdc42 (R150K) in the presence of cCst20
[6] = molecular target: T1, CaCdc42 (R150K), sNBD-labeled and …; assay: fluorescence titration of 1 µM sNBD-labeled, GMPPCP-loaded CaCdc42 (R150K) with the peptide [panel A]
[7] = molecular target: T1, CaCdc42 (R150K), sNBD-labeled and …; assay: fluorescence titration of 1 µM CaCdc42 (R150K) with eCla4-SLAM, no SAP-SH2
[8] = molecular target: T1, CaCdc42 (R150K), sNBD-labeled and …; assay: fluorescence cross-titration of sNBD-labeled CaCdc42 (R150K) in the presence of 50 µM mCst20
[9] = molecular target: T1, CaCdc42 (R150K), sNBD-labeled and …; assay: fluorescence cross-titration; cCst20 with mCst20 added, against cCst20 alone
[10] = molecular target: T1, CaCdc42 (R150K), sNBD-labeled and …; assay: fluorescence cross-titration of sNBD-labeled CaCdc42 (R150K) in the presence of 50 µM mCla4
[11] = molecular target: T1, CaCdc42 (R150K), sNBD-labeled and …; assay: fluorescence cross-titration of sNBD-labeled CaCdc42 (R150K) in the presence of cCla4

Binder	Kd [1] [µM]	other results
GGNSGVSGPINFTHKVHVGFDPASGSYTGLPIEWERLLSASGIT (modifications not checked) [mCla4-cCst20]	0.031	
EVNIKISTPFNAKHLAHVGIDDNGNFTGLPDTWKSLLQHSKIT (modifications not checked) [mCst20-cCla4]	2.64	
B1		Ki [2]: 362 µM
VNIKISTPFNAKHLAHVGIDDN (modifications not checked) [mCst20, P0CY24 469-490]	0.43	fold enhancement in binding upon addition of the cognate peptide [3]: 5.5 fold; EC50 (read off the curve) [4]: 0.9 µM; Kd [5]: 0.081 µM
GNSGVSGPINFTHKVHVGFDPASGNFTGLPDTWKSLLQHSKITN (modifications not checked) [eCla4, O14427 227-270]	0.025	EC50 (read off the curve) [6]: 0.5 µM
GGNSGVSGPINFTHKVHVGFDSGSGNFTGLPDTWKSLLQHSKIT (modifications not checked) [eCla4-SG, O14427 227-248; O14427 249-270]	0.067	
B2	0.127	EC50 (read off the curve) [7]: 0.7 µM
GSYTGLPIEWERLLSASGITKK (modifications not checked) [cCst20, P0CY24 491-512]	1160	Kd [8]: 207 µM; fold enhancement in binding upon addition of the cognate peptide [9]: 5.5 fold
SGNFTGLPDTWKSLLQHSKITN (modifications not checked) [cCla4, O14427 249-270]	275	Kd [10]: 311 µM
GNSGVSGPINFTHKVHVGFDPA (modifications not checked) [mCla4, O14427 227-248]	4.2	Kd [11]: 4.1 µM
VNIKISTPFNAKHLAHVGIDDNGSYTGLPIEWERLLSASGITKK (modifications not checked) [eCst20, P0CY24 469-512]	0.046	EC50 (read off the curve) [6]: 0.5 µM
EVNIKISTPFNAKHLAHVGIDPDNGNFTGLPDTWKSLLQHSKIT (modifications not checked) [mCst20-P-cCla4]	0.093	
